# B1: TPR t1 (parent)
# chain: GACCAAUCUGCCCUCAGAGCUCGAGAACAUCUUCGGAUGCAGAGGAGGCAGGCUUCGGUGGCGCGAUAGCGCCAACGUCCUCAACCUCCAAUGCAUCCCACCACAUGAUGAUGCCUGAAGAGCCUUGGUUUUUUG
# Variants of: B1
# Assay: polymerase ribozyme fitness, log enrichment relative to wild type (log ratio); higher = more active; in vitro selection for triplet polymerase activity
# Outline: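 Mutant libraries were PCR-built and transcribed for each subunit of a heterodimeric triplet polymerase ribozyme and selected for one round in triplicate at −7 °C, frozen, before gel excision of extended constructs and streptavidin-bead capture. Input and output libraries were Illumina-sequenced, keeping genotypes with ≥10 input reads and ≥1 read per output. Fitness is a logarithmic ratio of genotype to wild-type enrichment, in base 2, using inverse-variance-weighted replicate averages.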
row,Variant,polymerase ribozyme fitness (log ratio)
1,C53G C56A,-0.204
2,C53G C56G,-0.593
3,C53G C62U A119U,-0.561
4,C53G C70A,-3.68
5,C53G C72A C82G,-0.867
6,C53G C73U G113C A121C,-2.12
7,C53G C79A G120C U133A,-4.39
8,C53G C80G C115A,-2.69
9,C53G C86A,-1.75
10,C53G C86A A118G,-1.38
11,C53G C97U C104A A118G,-3.19
12,C53G C99U,-3.54
13,C53G C101G,-1.65
14,C53G C114A U125C,-2.07
15,C53G C114G,-3.08
16,C53G C114U G127C,-2.8
17,C53G C115G,-1.44
18,C53G C123A,0.261
19,C53G C124U U129A,-0.596
20,C53G G60C C98A C102A,-6.1
21,C53G G69C,-0.98
22,C53G G71U,-0.129
23,C53G G77C,-0.807
24,C53G G113A,-1.24

row,Variant,polymerase ribozyme fitness (log ratio)
1,C53G G117A U130C,-1.46
2,C53G G117C,-3.47
3,C53G G120U,-0.149
4,C53G U54C A121C,1.78
5,C53G U78C C82U G120A,0.0778
6,C53G U78C U81C U106A,-3.38
7,C53G U92A,-3.48
8,C53G U92G A105U,-6.44
9,C53G U106G,-2.14
10,C53G U112A,0.666
11,C53G U130A,-0.508
12,C53U A66G U112A,-0.539
13,C53U A74C,-0.315
14,C53U A83C U87C,0.394
15,C53U C56A,-0.566
16,C53U C56U A91U,-1.65
17,C53U C56U C89A G120A,-1.49
18,C53U C62A U78C,-1.46
19,C53U C62U,-1.01
20,C53U C64U G93U,-1.53
21,C53U C64U U106A,-1.12
22,C53U C70A A84C A100U,-3.17
23,C53U C70U A74G,-3.92
24,C53U C72A A91G U132A,0.186

row,Variant,polymerase ribozyme fitness (log ratio)
1,C53U C72A U130A,-0.183
2,C53U C72U C82G C123G,-0.45
3,C53U C73G G113C U132C,-3.47
4,C53U C79G,-1.2
5,C53U C80U,-0.665
6,C53U C80U U81C G120A,-3.73
7,C53U C85G,-2.01
8,C53U C88A G110A U112G,-4.23
9,C53U C97U,-0.844
10,C53U C99U,-2.93
11,C53U C104U,0.142
12,C53U C123G,1.61
13,C53U G60A A74C,-0.941
14,C53U G61A A105C,-2.22
15,C53U G61C,0.349
16,C53U G63A,-1.18
17,C53U G63U A90C C104A A121G C123A,-4.29
18,C53U G69A A103C G120U G128C U131G,-6.03
19,C53U G69U,0.587
20,C53U G69U C70U C82U,-0.71
21,C53U G69U C88G G110C C115A A121C C124G,-2.79
22,C53U G71A,-0.671
23,C53U G71U U81A C123U G135A,-0.21
24,C53U G107U,-4.06

row,Variant,polymerase ribozyme fitness (log ratio)
1,C53U G110C,-3.51
2,C53U G110U,-1.81
3,C53U G113U,-1.43
4,C53U G120A U130A,0.491
5,C53U G122A,-0.631
6,C53U U55G,-0.16
7,C53U U78C C124G,1.86
8,C53U U87A C97A,-5.45
9,C53U U92A G113A G117A C124A,-5.57
10,C53U U126C,-1.07
11,C53U U129A,-1.24
12,C53U U132A,-0.215
13,C53U U133A,-0.343
14,U54A A108U,-4.71
15,U54A C56U G93A,0.304
16,U54A C56U U133A,-0.112
17,U54A C62U C72G,-1.24
18,U54A C64U A105U,-2.69
19,U54A C70G,-2.37
20,U54A C70G C88U,-3.24
21,U54A C82U G113A,-1.2
22,U54A C94A G113U,-3.97
23,U54A C98G U112C,-3.86
24,U54A C115G,-2.09

row,Variant,polymerase ribozyme fitness (log ratio)
1,U54A C124A,-0.2
2,U54A G60C G117C,-3.99
3,U54A G113U C114G A121C,-2.43
4,U54A U55G G61A C80U,-0.516
5,U54A U59G,-0.218
6,U54A U81G G120A,-3.57
7,U54A U87A G117U,-2.44
8,U54A U92C G128A,-3.16
9,U54A U106A C124A U129C,0.971
10,U54A U116G,-1.91
11,U54C A118G,-0.7
12,U54C C56U U133G,0.0417
13,U54C C72U C82U A83C C115G G117A U129C,-4.96
14,U54C C73U A83U G113U U134G,-2.89
15,U54C C80A U125A,-2.52
16,U54C C86G C88A C101U U129C,-3.66
17,U54C C97G C123U,-2.86
18,U54C C101G,-1
19,U54C C115A,-0.609
20,U54C C115U,-0.738
21,U54C C124U,1.81
22,U54C G61A,-0.24
23,U54C G61C C73A G93U,-2.61
24,U54C G71A C85G C101U U112G G120C,-4.36

row,Variant,polymerase ribozyme fitness (log ratio)
1,U54C G71A C102A C123A,-3.7
2,U54C G93C G117A,-2.18
3,U54C U59C G61U U125A,-6.69
4,U54C U81C A95C,-0.789
5,U54G A84C,-0.587
6,U54G A91C G113U A121C,-2.85
7,U54G A95G U130A,-1.11
8,U54G C56A U132C,-1.66
9,U54G C56G A83C,-2.03
10,U54G C56G C72A G93A C124A U125A,-2.75
11,U54G C56G C80G A84G G117U,-6.69
12,U54G C72A,-1.41
13,U54G C86U G117U,-2.55
14,U54G C88A A105U,-2.56
15,U54G C89A U131G,-2.74
16,U54G C89U,-0.559
17,U54G C94A C114A,-3.33
18,U54G C104G,-7.42
19,U54G C123G,0.306
20,U54G G57U G120A,0.132
21,U54G G60U C115A,-3.58
22,U54G G63U C88U C89A A103U G122U C124A,-7.39
23,U54G G69U G117U,-3.75
24,U54G G117A,-2

row,Variant,polymerase ribozyme fitness (log ratio)
1,U54G U109G,-4.29
2,U54G U116A,-3.36
3,U54G U125A U126A,-2
4,U55A A84C,0.0901
5,U55A C56G C89U C124A,0.651
6,U55A C62A U78C C79A U125G U133G,-3.28
7,U55A C73A C104A A118G G122U,-1.07
8,U55A C80A C86G C124G,-4.35
9,U55A C101U A121U,1.89
10,U55A G57A G71C G113A,-2.54
11,U55A G57A U112G,-0.322
12,U55A G57C U78C A103G C124A U125A,-4.66
13,U55A G61C U96A G120C,-1.22
14,U55A G63A C85G C88G,-2.1
15,U55A G69C C104U C115A,-0.166
16,U55A G69U C82G,0.171
17,U55A G71A C82A C115A,-0.992
18,U55A G93A A121U,1.57
19,U55A U78G C82A G110A,-2.58
20,U55A U81A G107U A111U,-4.76
21,U55C A105G C123G,-0.655
22,U55C A121G,1.84
23,U55C C56U,0.598
